Source: publication PMC6602930
Values belong to the substance of their own block, whether it stands above or below them.

Key:
[1] = target: Alexa 488-labelled, crosslinked recombinant histone octamer (H2A, H2B T112C-Alexa 488, H3 C110A, H4 T71C) (UniProt P06897); test: other fluorescence titration; 5 nM Alexa 488-labelled octamer titrated with NP (pentamer concentration); 150 mM NaCl, 1 mM DTT, 0.1 mg/ml BSA, 20 mM Tris-HCl pH 7.5; ligand-depleted model with two pentamers per octamer; apparent
[2] = target: Recombinant nucleoplasmin, full length (rNP) (X. laevis) (UniProt P05221); test: native gel or EMSA; NP alone on 4-16% native PAGE (Figs 2B and S3); pentamers to decamer
[3] = target: Crosslinked histone octamer (dimethyl suberimidate) (not stated (chicken erythrocyte or recombinant histones)); test: native gel or EMSA; 8% native PAGE run from the positive to the negative electrode; fixed histones (10 µM H2A-H2B or H3-H4 dimers, 2.5 µM octamer) with increasing tail domain, 150 mM NaCl, 20 mM Tris-HCl pH 7.6, RT, 1 h
[4] = target: Histone H2A-H2B dimer, natural source (chicken erythrocyte chromatin) (chicken) (UniProt P02263); test: as above

Kd [1]: 0.04 nM
Substance: Egg nucleoplasmin (eNP) from X. laevis, natural hyperphosphorylated pentamer (from UniProt P05221 1-200) (natural protein)

stoichiometry N [2]: 10
Substance: Recombinant nucleoplasmin, full length (rNP) (from UniProt P05221 1-200) (natural protein)

stoichiometry N (C-terminal tails per crosslinked octamer) [3]: 4
stoichiometry N (tail domain/H2A-H2B dimer) [4]: 1
Substance: Phosphomimetic C-terminal tail domain of nucleoplasmin (rNP113–200-4D) (from UniProt P05221 113-200) (domain or fragment)

Kd [1]: 0.27 nM
Substance: Recombinant nucleoplasmin lacking the last 50 residues (rNPΔ150–200) (from UniProt P05221 1-149) (domain or fragment)
